# Data published in paper PMC2872118 (Nature, 2009).
# B1: PksA SAT-KS-MAT tridomain (domain or fragment)
# chain: MAQSRQLFLFGDQTADFVPKLRSLLSVQDSPILAAFLDQSHYVVRAQMLQSMNTVDHKLARTADLRQMVQKYVDGKLTPAFRTALVCLCQLGCFIREYEESGNMYPQPSDSYVLGFCMGSLAAVAVSCSRSLSELLPIAVQTVLIAFRLGLCALEMRDRVDGCSDDRGDPWSTIVWGLDPQQARDQIEVFCRTTNVPQTRRPWISCISKNAITLSGSPSTLRAFCAMPQMAQHRTAPIPICLPAHNGALFTQADITTILDTTPTTPWEQLPGQIPYISHVTGNVVQTSNYRDLIEVALSETLLEQVRLDLVETGLPRLLQSRQVKSVTIVPFLTRMNETMSNILPDSFISTETRTDTGRAIPASGRPGAGKCKLAIVSMSGRFPESPTTESFWDLLYKGLDVCKEVPRRRWDINTHVDPSGKARNKGATKWGCWLDFSGDFDPRFFGISPKEAPQMDPAQRMALMSTYEAMERAGLVPDTTPSTQRDRIGVFHGVTSNDWMETNTAQNIDTYFITGGNRGFIPGRINFCFEFAGPSYTNDTACSSSLAAIHLACNSLWRGDCDTAVAGGTNMIYTPDGHTGLDKGFFLSRTGNCKPYDDKADGYCRAEGVGTVFIKRLEDALADNDPILGVILDAKTNHSAMSESMTRPHVGAQIDNMTAALNTTGLHPNDFSYIEMHGTGTQVGDAVEMESVLSVFAPSETARKADQPLFVGSAKANVGHGEGVSGVTSLIKVLMMMQHDTIPPHCGIKPGSKINRNFPDLGARNVHIAFEPKPWPRTHTPRRVLINNFSAAGGNTALIVEDAPERHWPTEKDPRSSHIVALSAHVGASMKTNLERLHQYLLKNPHTDLAQLSYTTTARRWHYLHRVSVTGASVEEVTRKLEMAIQNGDGVSRPKSKPKILFAFTGQGSQYATMGKQVYDAYPSFREDLEKFDRLAQSHGFPSFLHVCTSPKGDVEEMAPVVVQLAITCLQMALTNLMTSFGIRPDVTVGHSLGEFAALYAAGVLSASDVVYLVGQRAELLQERCQRGTHAMLAVKATPEALSQWIQDHDCEVACINGPEDTVLSGTTKNVAEVQRAMTDNGIKCTLLKLPFAFHSAQVQPILDDFEALAQGATFAKPQLLILSPLLRTEIHEQGVVTPSYVAQHCRHTVDMAQALRSAREKGLIDDKTLVIELGPKPLISGMVKMTLGDKISTLPTLAPNKAIWPSLQKILTSVYTGGWDINWKKYHAPFASSQKVVDLPSYGWDLKDYYIPYQGDWCLHRHQQDCKCAAPGHEIKTADYQVPPESTPHRPSKLDPSKEAFP
# Target: the molecule itself
# Test: native gel or EMSA
protein,measurement,value
B1,stoichiometry N,2
